Measurements as given in publication PMC9584538 (Cell reports, 2022).
Several values for one entry are separate records, joined by “and”; a condition that tells them apart may be missing. Equal values may be shown once. Read-outs that look alike come from different tables or passages of the source. Each block holds one molecule with its values, some of them ahead of it.

What was measured:
_(PARL)Skd3^NBD (human) = assay: cryo-EM structure
PARLSkd3 (human CLPB) = target: T1, PARLSkd3 (human CLPB) (Homo sapiens, UniProt Q9H078); assay type: biochemical
T1 sequence (Q9H078 127-707): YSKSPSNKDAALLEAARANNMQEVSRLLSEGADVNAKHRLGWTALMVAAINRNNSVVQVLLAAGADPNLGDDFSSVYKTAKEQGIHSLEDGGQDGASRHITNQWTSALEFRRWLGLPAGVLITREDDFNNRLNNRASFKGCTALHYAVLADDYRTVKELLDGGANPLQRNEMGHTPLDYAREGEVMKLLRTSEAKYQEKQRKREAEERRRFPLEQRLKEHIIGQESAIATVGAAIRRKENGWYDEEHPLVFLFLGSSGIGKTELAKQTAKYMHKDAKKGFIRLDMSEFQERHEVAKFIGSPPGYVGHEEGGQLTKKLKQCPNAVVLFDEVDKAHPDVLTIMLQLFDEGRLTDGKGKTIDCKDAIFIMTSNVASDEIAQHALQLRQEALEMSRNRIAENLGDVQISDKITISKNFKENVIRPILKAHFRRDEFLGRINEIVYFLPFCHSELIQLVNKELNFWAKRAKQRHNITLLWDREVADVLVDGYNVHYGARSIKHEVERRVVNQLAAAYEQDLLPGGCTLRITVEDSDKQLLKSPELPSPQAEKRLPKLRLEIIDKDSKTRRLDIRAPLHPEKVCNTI

[1] = target: _(PARL)Skd3^Δ1-2 (ankyrin repeats 1 and 2 deleted, ΔY127-G196) (human); assay: cryo-EM structure
[2] = target: _(PARL)Skd3^Δ1-2 (ankyrin repeats 1 and 2 deleted, ΔY127-G196) (human); assay: SEC
SEC = target: the molecule itself; assay: SEC
[3] = target: Casein fluorescein isothiocyanate from bovine milk (FITC-casein) (bovine); assay: fluorescence polarisation
[4] = target: Casein fluorescein isothiocyanate from bovine milk (FITC-casein) (bovine); assay: fluorescence polarisation; remark: listed apart in the source
[5] = target: Casein fluorescein isothiocyanate from bovine milk (FITC-casein) (bovine); assay: fluorescence polarisation; remark: listed apart in the source
[6] = target: the molecule itself

Casein fluorescein isothiocyanate from bovine milk (FITC-casein) (bovine), sequence (P02662 16-214): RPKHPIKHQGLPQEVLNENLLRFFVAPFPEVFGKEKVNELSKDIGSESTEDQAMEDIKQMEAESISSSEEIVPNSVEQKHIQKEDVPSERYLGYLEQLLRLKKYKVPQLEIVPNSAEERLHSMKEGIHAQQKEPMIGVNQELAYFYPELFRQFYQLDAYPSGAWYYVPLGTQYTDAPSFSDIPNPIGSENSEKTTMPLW

IC50 (PARLSkd3 (human CLPB)): ~242 µM
Molecule: Nc1ncnc2c1ncn2[C@@H]1O[C@H](CO[P@](=O)(O)O[P@](=O)(O)O[P@@](=O)(O)S)[C@@H](O)[C@H]1O [ATPγS]

stoichiometry N [1]: 18
stoichiometry N [2]: 12
Molecule: _(PARL)Skd3^Δ1-2 (ankyrin repeats 1 and 2 deleted, ΔY127-G196) (enzyme)

IC50 (PARLSkd3 (human CLPB)): ~1200 µM
Molecule: Nc1ncnc2c1ncn2[C@@H]1O[C@H](COP(=O)(O)OP(=O)(O)O)[C@@H](O)[C@H]1O [ADP]

Kd [3]: 0.5 µM
Kd [4]: 0.4 µM
Kd [5]: 0.1 µM
B3: PARL-protease-activated Skd3 (human CLPB), wild type (enzyme)
chain: YSKSPSNKDAALLEAARANNMQEVSRLLSEGADVNAKHRLGWTALMVAAINRNNSVVQVLLAAGADPNLGDDFSSVYKTAKEQGIHSLEDGGQDGASRHITNQWTSALEFRRWLGLPAGVLITREDDFNNRLNNRASFKGCTALHYAVLADDYRTVKELLDGGANPLQRNEMGHTPLDYAREGEVMKLLRTSEAKYQEKQRKREAEERRRFPLEQRLKEHIIGQESAIATVGAAIRRKENGWYDEEHPLVFLFLGSSGIGKTELAKQTAKYMHKDAKKGFIRLDMSEFQERHEVAKFIGSPPGYVGHEEGGQLTKKLKQCPNAVVLFDEVDKAHPDVLTIMLQLFDEGRLTDGKGKTIDCKDAIFIMTSNVASDEIAQHALQLRQEALEMSRNRIAENLGDVQISDKITISKNFKENVIRPILKAHFRRDEFLGRINEIVYFLPFCHSELIQLVNKELNFWAKRAKQRHNITLLWDREVADVLVDGYNVHYGARSIKHEVERRVVNQLAAAYEQDLLPGGCTLRITVEDSDKQLLKSPELPSPQAEKRLPKLRLEIIDKDSKTRRLDIRAPLHPEKVCNTI

The remaining lines, values behind:

Molecule: _(PARL)Skd3^NBD (domain or fragment)
stoichiometry N (_(PARL)Skd3^NBD (human)): 6

B1: _(PARL)Skd3^ΔL (ANK linker deleted, ΔD197-A262) (enzyme, human, UniProt Q9H078 127-707, looked up)
chain: YSKSPSNKDAALLEAARANNMQEVSRLLSEGADVNAKHRLGWTALMVAAINRNNSVVQVLLAAGADPNLGSFKGCTALHYAVLADDYRTVKELLDGGANPLQRNEMGHTPLDYAREGEVMKLLRTSEAKYQEKQRKREAEERRRFPLEQRLKEHIIGQESAIATVGAAIRRKENGWYDEEHPLVFLFLGSSGIGKTELAKQTAKYMHKDAKKGFIRLDMSEFQERHEVAKFIGSPPGYVGHEEGGQLTKKLKQCPNAVVLFDEVDKAHPDVLTIMLQLFDEGRLTDGKGKTIDCKDAIFIMTSNVASDEIAQHALQLRQEALEMSRNRIAENLGDVQISDKITISKNFKENVIRPILKAHFRRDEFLGRINEIVYFLPFCHSELIQLVNKELNFWAKRAKQRHNITLLWDREVADVLVDGYNVHYGARSIKHEVERRVVNQLAAAYEQDLLPGGCTLRITVEDSDKQLLKSPELPSPQAEKRLPKLRLEIIDKDSKTRRLDIRAPLHPEKVCNTI
stoichiometry N (SEC): 12 and 6

B2: _(PARL)Skd3^ΔL507-I534 (NBD insertion deleted) (enzyme, human, UniProt Q9H078 127-707, looked up)
chain: YSKSPSNKDAALLEAARANNMQEVSRLLSEGADVNAKHRLGWTALMVAAINRNNSVVQVLLAAGADPNLGDDFSSVYKTAKEQGIHSLEDGGQDGASRHITNQWTSALEFRRWLGLPAGVLITREDDFNNRLNNRASFKGCTALHYAVLADDYRTVKELLDGGANPLQRNEMGHTPLDYAREGEVMKLLRTSEAKYQEKQRKREAEERRRFPLEQRLKEHIIGQESAIATVGAAIRRKENGWYDEEHPLVFLFLGSSGIGKTELAKQTAKYMHKDAKKGFIRLDMSEFQERHEVAKFIGSPPGYVGHEEGGQLTKKLKQCPNAVVLFDEVDKAHPDVLTIMLQLFDEGRLTDGKGKTIDCKDAIFIMTSNVASDEIAQHATISKNFKENVIRPILKAHFRRDEFLGRINEIVYFLPFCHSELIQLVNKELNFWAKRAKQRHNITLLWDREVADVLVDGYNVHYGARSIKHEVERRVVNQLAAAYEQDLLPGGCTLRITVEDSDKQLLKSPELPSPQAEKRLPKLRLEIIDKDSKTRRLDIRAPLHPEKVCNTI
stoichiometry N (SEC): 12

B4: _(PARL)Skd3^ΔL660-I707 (lacking the CTD) (enzyme, human, UniProt Q9H078 127-707, looked up)
chain: YSKSPSNKDAALLEAARANNMQEVSRLLSEGADVNAKHRLGWTALMVAAINRNNSVVQVLLAAGADPNLGDDFSSVYKTAKEQGIHSLEDGGQDGASRHITNQWTSALEFRRWLGLPAGVLITREDDFNNRLNNRASFKGCTALHYAVLADDYRTVKELLDGGANPLQRNEMGHTPLDYAREGEVMKLLRTSEAKYQEKQRKREAEERRRFPLEQRLKEHIIGQESAIATVGAAIRRKENGWYDEEHPLVFLFLGSSGIGKTELAKQTAKYMHKDAKKGFIRLDMSEFQERHEVAKFIGSPPGYVGHEEGGQLTKKLKQCPNAVVLFDEVDKAHPDVLTIMLQLFDEGRLTDGKGKTIDCKDAIFIMTSNVASDEIAQHALQLRQEALEMSRNRIAENLGDVQISDKITISKNFKENVIRPILKAHFRRDEFLGRINEIVYFLPFCHSELIQLVNKELNFWAKRAKQRHNITLLWDREVADVLVDGYNVHYGARSIKHEVERRVVNQLAAAYEQDLLPGGCTLRITVEDSDKQ
stoichiometry N [6]: 6 and 12
